Assay results from PMC12444091.

Tests used:
Experiment in all cases: potentiometry
Conditions in all cases: 25 °C (± 0.2 °C); 0.1 M (KCl); none (4 mM HCl, 0.1 M KCl); peptide 0.001 M; metal-free peptide, unstructured (random-coil CD spectrum)
[1] = biological target: Asp129 (UniProt position 129, …)
[2] = biological target: Asp129 (UniProt position 129, …); remark: listed apart in the source
[3] = biological target: His124 (UniProt position 124, …)
[4] = biological target: Asp129 (UniProt position 129, …); remark: listed apart in the source
[5] = biological target: His124 (UniProt position 124, …); remark: listed apart in the source

B1: HSPB1(124-131) peptide L4, Ac-HEARQDEH-NH2 (Homo sapiens; E126A) (peptide)
chain: HEARQDEH
For B1, which pKa [1] is on record?
The pKa was 3.26.

B2: HSPB1(124-131) peptide L2, Ac-HEERQDEA-NH2 (Homo sapiens; H131A) (peptide)
chain: HEERQDEA
Which results are given for B2?
pKa [2]: 3.60; pKa [3]: 7.00

B3: HSPB1(124-131) peptide L3, Ac-HEARQDEA-NH2 (Homo sapiens; E126A;H131A) (peptide)
chain: HEARQDEA
What does the source list for B3?
pKa [4]: 3.47; pKa [5]: 6.71
